According to US6613531B2, “Sigma binding region of RNA polymerase and uses thereof” (priority 2000, dated 2003):

Assays:
labeled σ^70 and β′ = labeled σ^70 and β′ (Escherichia coli, UniProt P00579+P0A8T7, C132S/C291S/C295S/S442C); conditions: 10 nM labeled σ^70, 50 nM labeled β′
Protocol: The assay was performed in NTG-buffer (200 μL total volume) plus 2.5% DMSO (when insoluble additives were used) with 10 nM σ^70* (labeled protein) and 50 nM β′* (labeled protein). Labeled σ^70 was added first to the assay, then the potential inhibitor and denatured labeled β′ was added last, mixing the solution well after the addition of each component. The mixture was incubated for 5 minutes at RT and measured in a 96-well plate (Costar 3650) with a multi-plate reader (Wallac, VictorV^2 1420). For this time-resolved fluorescence measurement, the manufacturer's protocol (LANCE high count 615/665) was used (excitation with 1000 flashes, at 325 nm, measurement was delayed by 100 μs and acquired for 50 μs at 615 and 665 nm). […] The IC5-emission is corrected for the very small amount of signal from the Eu-emission band (by cross talk measurement of a standard) and then divided by the intensity of the Eu signal. […] The nature of this method allows the differentiation of the loss of signal due to real inhibition from simple absorption caused by the inner filter effect from the substance.

σ^70 [1] = molecular target: T1, σ^70 (Escherichia coli, UniProt P00579); conditions: for ability to bind σ^70 compared to wt β′1-319 fragment: normalized to amount of fragment
Protocol: Cells containing truncated β′ expression plasmids pTA610-620 were grown to an A600 of 0.6-0.8 and induced with 1 mM IPTG. The cells were grown for an additional 30 minutes. A 200 μl sample was removed and sonicated 3×30 seconds. Twenty μl of glycerol and 20 μl of SDS-sample buffer were added and heated for 2 minutes at 95° C. then stored at −20° C. until use. The lysates were separated by SDS-PAGE. The proteins were electrophoretically transferred onto 0.05 μm nitrocellulose.
The blot was dried and the signal was visualized with a PhosphorImager and quantitated with IMAGEQUANT software (Molecular Dynamics).
This method was initially employed to detect the functionality of the β′ mutants. The mutations were cloned into a gene fragment coding for amino acid residues 1-319 of the β′ subunit. […] Samples were analyzed for binding σ^70 by far Western analysis The amount of σ^70 probe bound by each β′1-319 mutant fragment was compared to the amount bound by wt β′1-319 fragment. Each signal was normalized to the amount of β′1-319 contained in the supernatant as determined by Western blotting.
Target sequence in this assay (P00579 whole entry, the tested form may be a part): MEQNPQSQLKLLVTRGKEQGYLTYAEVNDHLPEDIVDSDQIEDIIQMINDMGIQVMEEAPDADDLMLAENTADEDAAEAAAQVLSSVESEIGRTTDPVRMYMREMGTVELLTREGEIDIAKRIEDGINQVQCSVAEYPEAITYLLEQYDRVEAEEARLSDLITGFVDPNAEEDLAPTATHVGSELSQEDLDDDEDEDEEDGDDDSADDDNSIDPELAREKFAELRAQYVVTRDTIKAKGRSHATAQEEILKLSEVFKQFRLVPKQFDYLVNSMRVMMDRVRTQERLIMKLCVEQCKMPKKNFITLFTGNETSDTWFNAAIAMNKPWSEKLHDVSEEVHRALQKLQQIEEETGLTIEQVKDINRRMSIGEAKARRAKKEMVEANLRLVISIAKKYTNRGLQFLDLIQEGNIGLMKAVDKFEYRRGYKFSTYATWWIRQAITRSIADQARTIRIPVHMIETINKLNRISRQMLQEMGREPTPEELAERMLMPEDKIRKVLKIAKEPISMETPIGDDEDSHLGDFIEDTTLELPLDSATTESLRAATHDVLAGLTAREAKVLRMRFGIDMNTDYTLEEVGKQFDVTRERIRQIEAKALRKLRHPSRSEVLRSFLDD

strain RL602 = test: Growth with plasmid-derived wild type or mutant β′ as sole source of β′ subunit; assay type: cell-based; conditions: 42° C., mutant β′ as sole source of β′
Protocol: Plasmids pTA577, 600-609 (0.1 μg) were transformed into strain RL602 (Weilbaecher et al., 1994; Ridley et al., 1982). After heat shock and incubation on ice, 300 μl of LB was added to the 50 μl cell mixture. Ten μl of the transformation reaction was spotted onto LB plates plus ampicillin (100 μg/ml) and incubated at 30° C. Another 10 μl was spotted onto plates and incubated at 42° C. The plates were incubated between 24-48 hours and assessed for growth.
To assess the importance of the σ^70 binding site in vivo, the ability of mutant β′ subunits to function as the cell's sole source of β′ was assessed. Plasmids containing either mutant or wild type, full length β′ were transformed into strain RL602 (Weilbaecher et al., 1994; Ridley et al., 1982). The chromosomal rpoC gene of RL602 has an amber mutation that prevents functional β′ from being produced in the absence of a suppressor tRNA. RL602 also has a chromosomal, temperature-sensitive, amber suppressor. At the permissive temperature (30° C.) the amber suppressor is active and allows chromosomal β′ to be produced and the cell can grow. The amber suppressor is not active at the non-permissive temperature (42° C.). Therefore, at 42° C., chromosomal β′ is not made and the cell cannot grow without another source of β′. If the plasmid-derived β′ can complement the loss of β′, the cells will grow and form colonies on plates at the non-permissive temperature. If the mutant β′ cannot complement, there will be no growth on the plates at this temperature.

σ^70 [2] = molecular target: T1, σ^70; conditions: for Eσ^70 formation / binding σ^70: log and stationary phase samples
Protocol: (§1) One L flasks containing 200 ml of LB with ampicillin (100 μg/ml) and IPTG (0.15 mM) were inoculated with 200 μl from an overnight culture of cells containing plasmids pTA561, 577, 600-609. The cultures were grown at 37° C. with shaking until the A600=0.4 for log phase assays and 2 hours longer (A600 about 2.0) for the early stationary phase assays. The cells were harvested by centrifugation at 6,000 rpm for 10 minutes and stored at −20° C. until use. The cell pellets were resuspended in 5 ml TE (10 mM Tris-HCl, pH 7.9 and 0.1 mM EDTA) plus 0.15 M NaCl and lysozyme (0.1 mg/ml) then incubated on ice for 15 minutes. The cells were sonicated 2×30 seconds and centrifuged for 25 minutes at 27,000×g to pellet the insoluble material. The supernatant was loaded onto a 1.5 ml immunoaffinity column containing the polyol-responsive, anti-β′ monoclonal antibody (MAb), NT73 (Thompson et al., 1992). The column was washed with 15 ml TE plus 0.15 M NaCl followed by a second wash with 10 ml TE plus 0.5 M NaCl. The protein was eluted from the column with 4 ml TE plus 0.7 M NaCl and 30% propylene glycol. The eluted sample (4 ml) was diluted with 6 ml buffer B (20 mM Tris-HCl, pH 7.9, 500 mM NaCl, 5 mM imidazole, 0.1% (v/v) Tween 20, and 10% (v/v) glycerol) and loaded (2×) onto 500 μl of Ni^2+-NTA resin. The resin was washed (2×) with 5 ml of buffer B and eluted with 0.5 ml buffer B plus 0.25 M imidazole. Samples from the elution fractions were assayed by Western blot as described above using Mabs to each subunit or σ factor. The secondary antibodies were horseradish peroxidase-labeled goat antimouse IgG antibodies and the signal was generated using the ECL+ substrate system (Amersham) and detected using the STORM FluoroImager and quantitated with IMAGEQUANT software (Molecular Dynamics).
(§2) To evaluate the potential assembly defects caused by the various mutations, His6-tagged, mutant β′ subunits were expressed in cells that were also expressing wild type, chromosomal β′ proteins. A Ni^2+-NTA column was used to purify the mutant β′ subunits together with associated cell proteins. An immunoaffinity column was used to clean-up the samples in order to reduce any non-specific binding to the Ni^2+-NTA column.
Target sequence in this assay (P00579 whole entry, the tested form may be a part): as above
Target sequence in this assay (P0A8T7 whole entry, further chain, the tested form may be a part): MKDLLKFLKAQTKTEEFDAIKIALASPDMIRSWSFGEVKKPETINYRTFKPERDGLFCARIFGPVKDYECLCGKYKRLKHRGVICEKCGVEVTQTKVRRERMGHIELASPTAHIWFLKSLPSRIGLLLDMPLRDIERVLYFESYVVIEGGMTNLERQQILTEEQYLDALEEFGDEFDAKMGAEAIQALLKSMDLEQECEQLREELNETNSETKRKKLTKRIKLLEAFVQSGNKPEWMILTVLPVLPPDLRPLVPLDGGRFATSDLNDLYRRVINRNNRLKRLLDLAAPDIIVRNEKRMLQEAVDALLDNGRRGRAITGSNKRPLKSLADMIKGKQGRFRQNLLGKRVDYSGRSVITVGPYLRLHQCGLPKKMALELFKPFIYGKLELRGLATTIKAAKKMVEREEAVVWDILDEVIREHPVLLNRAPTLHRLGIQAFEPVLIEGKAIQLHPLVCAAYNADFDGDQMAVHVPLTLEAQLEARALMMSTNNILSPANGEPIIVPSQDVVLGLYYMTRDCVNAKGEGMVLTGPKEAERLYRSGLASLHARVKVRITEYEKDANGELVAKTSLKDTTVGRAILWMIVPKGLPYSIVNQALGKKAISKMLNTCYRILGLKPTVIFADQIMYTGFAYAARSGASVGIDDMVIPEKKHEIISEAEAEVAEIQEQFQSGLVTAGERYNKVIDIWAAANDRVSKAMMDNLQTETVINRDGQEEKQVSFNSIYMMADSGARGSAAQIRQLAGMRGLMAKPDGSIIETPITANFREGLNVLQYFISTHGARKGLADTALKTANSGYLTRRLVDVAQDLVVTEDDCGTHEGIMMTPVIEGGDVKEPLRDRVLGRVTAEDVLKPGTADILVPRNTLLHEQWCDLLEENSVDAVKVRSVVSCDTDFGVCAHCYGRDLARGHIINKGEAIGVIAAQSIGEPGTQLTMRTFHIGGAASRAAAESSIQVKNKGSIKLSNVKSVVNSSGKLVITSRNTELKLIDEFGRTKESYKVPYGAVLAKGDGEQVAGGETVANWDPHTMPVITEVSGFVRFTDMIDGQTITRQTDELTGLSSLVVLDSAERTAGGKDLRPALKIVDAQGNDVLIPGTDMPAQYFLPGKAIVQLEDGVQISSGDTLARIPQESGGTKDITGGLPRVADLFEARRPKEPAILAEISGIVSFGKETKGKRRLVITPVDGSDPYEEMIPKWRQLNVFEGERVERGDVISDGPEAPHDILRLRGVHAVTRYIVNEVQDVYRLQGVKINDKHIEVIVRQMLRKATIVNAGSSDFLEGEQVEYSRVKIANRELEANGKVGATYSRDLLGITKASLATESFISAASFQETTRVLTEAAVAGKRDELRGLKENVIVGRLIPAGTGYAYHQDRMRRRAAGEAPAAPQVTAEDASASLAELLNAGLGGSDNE
Target sequence in this assay (P0A8V2 whole entry, further chain, the tested form may be a part): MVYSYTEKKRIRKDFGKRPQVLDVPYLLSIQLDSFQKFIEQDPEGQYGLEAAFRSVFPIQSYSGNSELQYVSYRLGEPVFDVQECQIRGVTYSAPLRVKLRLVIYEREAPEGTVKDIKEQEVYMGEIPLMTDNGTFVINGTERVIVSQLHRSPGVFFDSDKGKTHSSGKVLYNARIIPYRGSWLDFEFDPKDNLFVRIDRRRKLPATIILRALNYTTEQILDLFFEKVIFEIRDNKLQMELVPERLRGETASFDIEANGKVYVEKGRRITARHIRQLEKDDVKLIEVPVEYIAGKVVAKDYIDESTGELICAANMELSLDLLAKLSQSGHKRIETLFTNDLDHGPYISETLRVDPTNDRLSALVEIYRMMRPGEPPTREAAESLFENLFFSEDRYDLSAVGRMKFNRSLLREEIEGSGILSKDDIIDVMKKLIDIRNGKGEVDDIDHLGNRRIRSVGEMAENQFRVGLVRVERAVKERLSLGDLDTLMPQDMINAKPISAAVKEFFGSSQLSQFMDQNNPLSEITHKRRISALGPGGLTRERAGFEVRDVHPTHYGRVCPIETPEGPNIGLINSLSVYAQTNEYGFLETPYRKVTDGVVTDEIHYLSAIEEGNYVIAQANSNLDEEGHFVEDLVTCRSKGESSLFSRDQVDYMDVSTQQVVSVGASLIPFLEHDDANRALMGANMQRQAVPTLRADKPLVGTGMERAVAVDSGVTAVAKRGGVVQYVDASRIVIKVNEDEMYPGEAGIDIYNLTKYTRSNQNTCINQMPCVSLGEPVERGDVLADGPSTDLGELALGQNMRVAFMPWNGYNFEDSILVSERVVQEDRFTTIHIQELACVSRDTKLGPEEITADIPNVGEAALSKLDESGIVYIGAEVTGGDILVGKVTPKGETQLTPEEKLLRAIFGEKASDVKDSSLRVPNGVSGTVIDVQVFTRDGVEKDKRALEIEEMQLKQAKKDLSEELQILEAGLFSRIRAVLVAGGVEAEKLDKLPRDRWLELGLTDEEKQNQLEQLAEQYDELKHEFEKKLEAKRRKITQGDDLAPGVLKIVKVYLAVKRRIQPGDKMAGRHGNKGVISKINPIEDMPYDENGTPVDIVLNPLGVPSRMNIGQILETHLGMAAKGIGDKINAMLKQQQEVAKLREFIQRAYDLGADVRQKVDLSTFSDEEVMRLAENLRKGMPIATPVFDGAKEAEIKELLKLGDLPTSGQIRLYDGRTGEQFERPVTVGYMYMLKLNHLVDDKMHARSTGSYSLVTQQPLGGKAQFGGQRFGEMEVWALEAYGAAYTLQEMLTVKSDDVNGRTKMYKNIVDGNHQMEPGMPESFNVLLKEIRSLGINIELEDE
Target sequence in this assay (P0A7Z4 whole entry, further chain, the tested form may be a part): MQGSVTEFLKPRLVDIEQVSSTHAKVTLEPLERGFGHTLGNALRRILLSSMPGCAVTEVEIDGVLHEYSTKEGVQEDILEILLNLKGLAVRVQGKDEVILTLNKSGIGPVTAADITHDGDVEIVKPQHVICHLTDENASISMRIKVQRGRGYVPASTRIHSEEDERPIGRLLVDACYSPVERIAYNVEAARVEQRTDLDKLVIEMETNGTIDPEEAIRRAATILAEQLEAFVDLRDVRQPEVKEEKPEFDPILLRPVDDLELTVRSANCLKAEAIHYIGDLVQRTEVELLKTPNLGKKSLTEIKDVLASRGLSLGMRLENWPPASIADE

σ^F = σ^F (Escherichia coli, UniProt P0AEM6); conditions: stationary phase samples
Protocol: as §1, §2
(§3) All of the sample eluates were also assayed for the presence of any minor σ species.

σ^32 = molecular target: T2, σ^32 (Escherichia coli, UniProt P0AGB3)
T2 sequence (P0AGB3 whole entry, looked up): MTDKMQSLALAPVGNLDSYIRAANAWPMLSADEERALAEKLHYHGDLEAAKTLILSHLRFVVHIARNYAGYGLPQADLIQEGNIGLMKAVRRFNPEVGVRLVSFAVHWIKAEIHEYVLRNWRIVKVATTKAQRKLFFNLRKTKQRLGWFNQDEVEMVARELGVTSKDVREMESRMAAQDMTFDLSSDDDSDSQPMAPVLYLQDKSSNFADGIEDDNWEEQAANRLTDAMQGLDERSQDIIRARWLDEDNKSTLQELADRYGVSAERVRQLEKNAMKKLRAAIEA
Protocol: as §1, §2, §3

labeled σ^70 and β′, sequence (P00579 whole entry C132S/C291S/C295S/S442C, the tested form may be a part): as the sequence (P00579 whole entry, the tested form may be a part) above, with C132S, C291S, C295S, S442C counted along it
labeled σ^70 and β′, sequence (P0A8T7 100-309): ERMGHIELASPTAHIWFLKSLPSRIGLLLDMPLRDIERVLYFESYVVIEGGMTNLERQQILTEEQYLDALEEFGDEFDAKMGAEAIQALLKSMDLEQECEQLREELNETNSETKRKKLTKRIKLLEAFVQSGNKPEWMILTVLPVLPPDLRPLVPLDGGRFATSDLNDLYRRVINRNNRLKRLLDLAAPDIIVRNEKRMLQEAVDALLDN

## C[S+](C)[O-] [DMSO]
Labeled σ^70 and β′
  effect on LRET signal / competition: no significant effect

## CCO [ethanol]
Labeled σ^70 and β′
  effect on LRET signal / competition: significant effect

## A302D (FATSDLNDLYRRVINRNNRLKRLLDLAAPDIIVRNEKRMLQEDVDALLDN)
σ^70 [1]
  ability to bind σ^70 compared to wt β′1-319 fragment: greatly reduced
Strain RL602
  growth at the non-permissive temperature: could not support growth
σ^70 [2]
  Eσ^70 formation / binding σ^70: defects in binding σ^70

## E295K (FATSDLNDLYRRVINRNNRLKRLLDLAAPDIIVRNKKRMLQEAVDALLDN)
σ^70 [1]
  ability to bind σ^70 compared to wt β′1-319 fragment: greatly reduced
Strain RL602
  growth at the non-permissive temperature: could not support growth
σ^70 [2]
  Eσ^70 formation / binding σ^70: defects in binding σ^70

## K280E (FATSDLNDLYRRVINRNNRLERLLDLAAPDIIVRNEKRMLQEAVDALLDN)
σ^70 [1]
  ability to bind σ^70 compared to wt β′1-319 fragment: no effects on binding
Strain RL602
  growth at the non-permissive temperature: no detectable effects on growth
σ^70 [2]
  Eσ^70 formation / binding σ^70: no detectable affect

## N266D (FATSDLDDLYRRVINRNNRLKRLLDLAAPDIIVRNEKRMLQEAVDALLDN)
σ^70 [1]
  ability to bind σ^70 compared to wt β′1-319 fragment: no effects on binding
Strain RL602
  growth at the non-permissive temperature: allowed some growth
σ^70 [2]
  Eσ^70 formation / binding σ^70: reduced

## N309D (FATSDLNDLYRRVINRNNRLKRLLDLAAPDIIVRNEKRMLQEAVDALLDD)
σ^70 [1]
  ability to bind σ^70 compared to wt β′1-319 fragment: binding more σ^70 than wild type
Strain RL602
  growth at the non-permissive temperature: no detectable effects on growth
σ^70 [2]
  Eσ^70 formation / binding σ^70: no detectable affect

## Q300E (FATSDLNDLYRRVINRNNRLKRLLDLAAPDIIVRNEKRMLEEAVDALLDN)
σ^70 [1]; versus wild type β′1-319
  increase in relative binding: greater than 7 fold
σ^70 [1]
  ability to bind σ^70 compared to wt β′1-319 fragment: binding more σ^70 than wild type
σ^F
  σ^F levels: greatly reduced
σ^32; log phase samples
  amount of σ^32: decreased amount
σ^32; stationary phase samples
  σ^32 levels: greatly reduced
Strain RL602
  growth at the non-permissive temperature: no detectable effects on growth

## R275Q (FATSDLNDLYRRVINQNNRLKRLLDLAAPDIIVRNEKRMLQEAVDALLDN)
σ^70 [1]
  ability to bind σ^70 compared to wt β′1-319 fragment: greatly reduced
Strain RL602
  growth at the non-permissive temperature: could not support growth
σ^70 [2]
  Eσ^70 formation / binding σ^70: defects in binding σ^70

## R293Q (FATSDLNDLYRRVINRNNRLKRLLDLAAPDIIVQNEKRMLQEAVDALLDN)
σ^70 [1]
  ability to bind σ^70 compared to wt β′1-319 fragment: greatly reduced
Strain RL602
  growth at the non-permissive temperature: could support growth
σ^70 [2]
  Eσ^70 formation / binding σ^70: no detectable affect

## R297S (FATSDLNDLYRRVINRNNRLKRLLDLAAPDIIVRNEKSMLQEAVDALLDN)
σ^70 [1]
  ability to bind σ^70 compared to wt β′1-319 fragment: greatly reduced
σ^32; minor σ's at detectable levels: σ^32 and σ^F
  binding of the minor sigmas: increased binding
Strain RL602
  growth at the non-permissive temperature: could support growth
σ^70 [2]; log phase samples
  Eσ^70 formation: reduced

## Y269A (FATSDLNDLARRVINRNNRLKRLLDLAAPDIIVRNEKRMLQEAVDALLDN)
σ^70 [1]
  ability to bind σ^70 compared to wt β′1-319 fragment: no effects on binding
Strain RL602
  growth at the non-permissive temperature: no detectable effects on growth
σ^70 [2]
  Eσ^70 formation / binding σ^70: no detectable affect
